Test results from patent US20050282739A1 (PALATIN TECHNOLOGIES, published 2005).
Square brackets hold non-standard residues; d marks the D form. Ends that are not written are not given here. Nle = CCCC[C@H](N)C(=O)O

B1: metallopeptide 4-3 (peptide)
peptide: YV[Nle]GHFRWDCRF-NH2
modifications: also: oxorhenium(V) N3S1 chelate: C10 SG + backbone N of W8, D9, C10, bridge at 10 via Re(V)=O, other end not in the chain
B2: metallopeptide 4-4 (peptide)
peptide: YV[Nle]GHFRWCDRF-NH2
modifications: also: oxorhenium(V) N3S1 chelate: C9 SG + backbone N of R7, W8, C9, bridge at 9 via Re(V)=O, other end not in the chain
B3: metallopeptide 4-2 (peptide)
peptide: YV[Nle]GHFRWDRCF-NH2
modifications: also: oxorhenium(V) N3S1 chelate: C11 SG + backbone N of D9, R10, C11, bridge at 11 via Re(V)=O, other end not in the chain
B4: metallopeptide 4-7 (peptide)
peptide: YV[Nle]GHCFRWDRF-NH2
modifications: also: oxorhenium(V) N3S1 chelate: C6 SG + backbone N of G4, H5, C6, bridge at 6 via Re(V)=O, other end not in the chain
B5: metallopeptide 4-9 (peptide)
peptide: YV[Nle]CGHFRWDRF-NH2
modifications: also: oxorhenium(V) N3S1 chelate: C4 SG + backbone N of V2, X3, C4, bridge at 4 via Re(V)=O, other end not in the chain
B6: metallopeptide 4-6 (peptide)
peptide: YV[Nle]GHFCRWDRF-NH2
modifications: also: oxorhenium(V) N3S1 chelate: C7 SG + backbone N of H5, F6, C7, bridge at 7 via Re(V)=O, other end not in the chain

Each binder was assayed against T1, melanocortin-1 receptor (MC1-R) of B-16 mouse melanoma cells (mouse, UniProt Q01727 1-315) (assay: 125I-NDP-α-MSH competition, B-16 membranes).
T1 construct: whole, on cells; membranes prepared from the cells were used; also called Melanocortin Receptor 1
T1 sequence (Q01727 whole entry): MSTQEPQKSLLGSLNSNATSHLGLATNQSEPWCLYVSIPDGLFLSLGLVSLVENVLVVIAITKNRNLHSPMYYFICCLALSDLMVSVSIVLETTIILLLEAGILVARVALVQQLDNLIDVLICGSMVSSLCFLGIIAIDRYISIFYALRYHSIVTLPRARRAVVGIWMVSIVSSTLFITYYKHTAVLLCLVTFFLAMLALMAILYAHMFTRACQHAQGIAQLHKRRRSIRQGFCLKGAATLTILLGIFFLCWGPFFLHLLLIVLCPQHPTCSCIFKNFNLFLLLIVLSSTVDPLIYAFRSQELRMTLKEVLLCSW
Method: (§1) The competitive inhibition binding assay was conducted using membranes prepared from hMC3-R, hMC4-R, hMC5-R, and B-16 mouse melanoma cells (containing MC1-R) using 0.4 nM ¹²⁵I-NDP-alpha-MSH (New England Nuclear, Boston, Mass., USA) in 50 mM HEPES buffer containing 1 mM MgCl₂, 2 mM CaCl₂, and 5 mM KCl, at pH 7.2. […] Incubation was for 90 minutes at room temperature, after which the assay mixture was filtered and the membranes washed three times with ice cold buffer. The filter was dried and counted in a gamma counter for remaining radioactivity bound to the membranes. 100% specific binding was defined as the difference in radioactivity (cpm) bound to cell membranes in the absence and presence of 1 μM α-MSH. […] Each assay was conducted in triplicate and the actual mean valves are described.
(§2) The methods and assays set forth in Example 1 were followed.
With Ac-SYS[Nle]EHFR[dC]WGKPV-NH2 (also: oxorhenium(V) N3S1 chelate at D-Cys9) [metallopeptide 2-6] the “% Inhibition at 1 µM” value was 46%. For Ac-SYS[Nle]EHFRWG[dC]KPV-NH2 (also: oxorhenium(V) N3S1 chelate at D-Cys11) [metallopeptide 2-4], the “% Inhibition at 1 µM” value was 91%. With Ac-SY[dC]S[Nle]EHFRWGKPV-NH2 (also: oxorhenium(V) N3S1 chelate at D-Cys3) [metallopeptide 2-12] the “% Inhibition at 1 µM” value was 97%. With B1 the “% Inhibition at 1 µM” value was 44%. B2 was tested, and the “% Inhibition at 1 µM” value was 52%. With B3 the “% Inhibition at 1 µM” value was 75%. For YVXGHFRWDRF (Nle 3; C-terminal amide, not complexed to Re) [[Nle3]-γ-MSH parent polypeptide Tyr-Val-Nle-Gly-His-Phe-Arg-Trp-Asp-Arg-Phe-NH2], the “% Inhibition at 1 µM” value was 83%. In the case of Ac-SYS[Nle]E[dC]HFRWGKPV-NH2 (also: oxorhenium(V) N3S1 chelate at D-Cys 6) [metallopeptide 2-9], the “% Inhibition at 1 µM” value is reported as 92%. With Ac-SYS[Nle]EHFRWGK[dC]PV-NH2 (also: oxorhenium(V) N3S1 chelate at D-Cys12) [metallopeptide 2-3] the “% Inhibition at 1 µM” value was 91%. For Ac-SYS[Nle]EHFRW[dC]GKPV-NH2 (also: oxorhenium(V) N3S1 chelate at D-Cys10) [metallopeptide 2-5], the “% Inhibition at 1 µM” value was 43%.

What follows are binders tested against T2, human melanocortin-3 receptor (hMC3-R) (human, UniProt P41968 1-323) (assay: 125I-NDP-α-MSH competition, hMC3-R membranes).
T2 construct: whole, on cells; membranes prepared from hMC3-R cells were used; also called Melanocortin Receptor 3
T2 sequence (P41968 whole entry): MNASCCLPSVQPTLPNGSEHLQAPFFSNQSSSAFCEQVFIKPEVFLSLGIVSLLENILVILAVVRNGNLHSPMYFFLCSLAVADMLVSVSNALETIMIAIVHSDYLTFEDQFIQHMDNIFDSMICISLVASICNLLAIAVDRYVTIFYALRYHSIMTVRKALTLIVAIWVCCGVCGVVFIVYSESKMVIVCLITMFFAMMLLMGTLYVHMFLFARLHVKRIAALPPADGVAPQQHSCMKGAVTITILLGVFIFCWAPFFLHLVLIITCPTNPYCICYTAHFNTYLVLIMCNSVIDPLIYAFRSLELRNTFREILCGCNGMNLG
Method: as §1, §2
For B4, the “% Inhibition at 1 µM” value was 17%. Ac-SYS[Nle]EHFR[dC]WGKPV-NH2 (also: oxorhenium(V) N3S1 chelate at D-Cys9) [metallopeptide 2-6] was tested, and the “% Inhibition at 1 µM” value was 2%. For Ac-SYS[Nle]EHFRWG[dC]KPV-NH2 (also: oxorhenium(V) N3S1 chelate at D-Cys11) [metallopeptide 2-4], the “% Inhibition at 1 µM” value was 27%. With B5 the “% Inhibition at 1 µM” value was 19%. Ac-SY[dC]S[Nle]EHFRWGKPV-NH2 (also: oxorhenium(V) N3S1 chelate at D-Cys3) [metallopeptide 2-12] was tested, and the “% Inhibition at 1 µM” value was 21%. With B1 the “% Inhibition at 1 µM” value was 18%. B2 was tested, and the “% Inhibition at 1 µM” value was 20%. B3 was tested, and the “% Inhibition at 1 µM” value was 49%. In the case of YVXGHFRWDRF (Nle 3; C-terminal amide, not complexed to Re) [[Nle3]-γ-MSH parent polypeptide Tyr-Val-Nle-Gly-His-Phe-Arg-Trp-Asp-Arg-Phe-NH2], the “% Inhibition at 1 µM” value is reported as 85%. Ac-SYS[Nle]E[dC]HFRWGKPV-NH2 (also: oxorhenium(V) N3S1 chelate at D-Cys 6) [metallopeptide 2-9] was tested, and the “% Inhibition at 1 µM” value was 13%. For Ac-SYS[Nle]EHFRWGK[dC]PV-NH2 (also: oxorhenium(V) N3S1 chelate at D-Cys12) [metallopeptide 2-3], the “% Inhibition at 1 µM” value was 41%. In the case of Ac-SYS[Nle]EHFRW[dC]GKPV-NH2 (also: oxorhenium(V) N3S1 chelate at D-Cys10) [metallopeptide 2-5], the “% Inhibition at 1 µM” value is reported as 0%.

What follows are binders tested against T3, human melanocortin-4 receptor (hMC4-R) (human, UniProt P32245 1-332) (assay: 125I-NDP-α-MSH competition, hMC4-R membranes).
T3 construct: whole, on cells; membranes prepared from hMC4-R cells were used; also called Melanocortin Receptor 4
T3 sequence (P32245 whole entry): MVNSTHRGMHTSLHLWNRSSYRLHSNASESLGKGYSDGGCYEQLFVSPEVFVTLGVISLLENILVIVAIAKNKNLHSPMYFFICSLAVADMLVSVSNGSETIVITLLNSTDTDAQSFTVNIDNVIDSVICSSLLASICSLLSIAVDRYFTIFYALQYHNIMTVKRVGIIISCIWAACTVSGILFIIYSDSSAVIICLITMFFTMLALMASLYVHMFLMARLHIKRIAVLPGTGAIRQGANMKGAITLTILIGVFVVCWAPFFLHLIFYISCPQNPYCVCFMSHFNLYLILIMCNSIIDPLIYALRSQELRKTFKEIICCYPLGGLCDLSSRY
Method: as §1, §2
With Ac-SYS[Nle]EHFR[dC]WGKPV-NH2 (also: oxorhenium(V) N3S1 chelate at D-Cys9) [metallopeptide 2-6] the “% Inhibition at 1 µM” value was 6%. Ac-SYS[Nle]EHFRWG[dC]KPV-NH2 (also: oxorhenium(V) N3S1 chelate at D-Cys11) [metallopeptide 2-4] was tested, and the “% Inhibition at 1 µM” value was 40%. With Ac-SY[dC]S[Nle]EHFRWGKPV-NH2 (also: oxorhenium(V) N3S1 chelate at D-Cys3) [metallopeptide 2-12] the “% Inhibition at 1 µM” value was 47%. With B1 the “% Inhibition at 1 µM” value was 23%. B2 was tested, and the “% Inhibition at 1 µM” value was 39%. B3 was tested, and the “% Inhibition at 1 µM” value was 23%. With YVXGHFRWDRF (Nle 3; C-terminal amide, not complexed to Re) [[Nle3]-γ-MSH parent polypeptide Tyr-Val-Nle-Gly-His-Phe-Arg-Trp-Asp-Arg-Phe-NH2] the “% Inhibition at 1 µM” value was 58%. In the case of Ac-SYS[Nle]E[dC]HFRWGKPV-NH2 (also: oxorhenium(V) N3S1 chelate at D-Cys 6) [metallopeptide 2-9], the “% Inhibition at 1 µM” value is reported as 35%. Ac-SYS[Nle]EHFRWGK[dC]PV-NH2 (also: oxorhenium(V) N3S1 chelate at D-Cys12) [metallopeptide 2-3] was tested, and the “% Inhibition at 1 µM” value was 25%. For Ac-SYS[Nle]EHFRW[dC]GKPV-NH2 (also: oxorhenium(V) N3S1 chelate at D-Cys10) [metallopeptide 2-5], the “% Inhibition at 1 µM” value was 4%.

The binders below were run against T4, human melanocortin-5 receptor (hMC5-R) (human, UniProt P33032 1-325) (assay: 125I-NDP-α-MSH competition, hMC5-R membranes).
T4 construct: whole, on cells; membranes prepared from hMC5-R cells were used; also called Melanocortin Receptor 5
T4 sequence (P33032 whole entry): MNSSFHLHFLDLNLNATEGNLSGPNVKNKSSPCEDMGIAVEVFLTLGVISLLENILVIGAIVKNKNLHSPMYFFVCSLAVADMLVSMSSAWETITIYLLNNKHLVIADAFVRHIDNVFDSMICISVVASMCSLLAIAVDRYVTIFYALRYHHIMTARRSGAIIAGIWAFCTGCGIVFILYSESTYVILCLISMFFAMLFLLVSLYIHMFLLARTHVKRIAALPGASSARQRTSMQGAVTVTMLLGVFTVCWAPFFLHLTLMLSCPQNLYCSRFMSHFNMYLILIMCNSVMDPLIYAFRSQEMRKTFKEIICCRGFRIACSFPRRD
Method: as §1, §2
In the case of B4, the “% Inhibition at 1 µM” value is reported as 15%. With B6 the “% Inhibition at 1 µM” value was 24%. Ac-SYS[Nle]EHFR[dC]WGKPV-NH2 (also: oxorhenium(V) N3S1 chelate at D-Cys9) [metallopeptide 2-6] was tested, and the “% Inhibition at 1 µM” value was 6%. With Ac-SYS[Nle]EHFRWG[dC]KPV-NH2 (also: oxorhenium(V) N3S1 chelate at D-Cys11) [metallopeptide 2-4] the “% Inhibition at 1 µM” value was 21%. B5 was tested, and the “% Inhibition at 1 µM” value was 43%. For Ac-SY[dC]S[Nle]EHFRWGKPV-NH2 (also: oxorhenium(V) N3S1 chelate at D-Cys3) [metallopeptide 2-12], the “% Inhibition at 1 µM” value was 17%. B1 was tested, and the “% Inhibition at 1 µM” value was 65%. With B2 the “% Inhibition at 1 µM” value was 47%. B3 was tested, and the “% Inhibition at 1 µM” value was 51%. YVXGHFRWDRF (Nle 3; C-terminal amide, not complexed to Re) [[Nle3]-γ-MSH parent polypeptide Tyr-Val-Nle-Gly-His-Phe-Arg-Trp-Asp-Arg-Phe-NH2] was tested, and the “% Inhibition at 1 µM” value was 43%. In the case of Ac-SYS[Nle]E[dC]HFRWGKPV-NH2 (also: oxorhenium(V) N3S1 chelate at D-Cys 6) [metallopeptide 2-9], the “% Inhibition at 1 µM” value is reported as 2%. In the case of Ac-SYS[Nle]EHFRWGK[dC]PV-NH2 (also: oxorhenium(V) N3S1 chelate at D-Cys12) [metallopeptide 2-3], the “% Inhibition at 1 µM” value is reported as 38%. For Ac-SYS[Nle]EHFRW[dC]GKPV-NH2 (also: oxorhenium(V) N3S1 chelate at D-Cys10) [metallopeptide 2-5], the “% Inhibition at 1 µM” value was 0%.
